Measurements taken from IntAct's records for PubMed 29039417.

B1: BBSome complex member BBS2 (Homo sapiens), Q9BXC9 (parent)
chain: MLLPVFTLKLRHKISPRMVAIGRYDGTHPCLAAATQTGKVFIHNPHTRNQHVSASRVFQSPLESDVSLLSINQAVSCLTAGVLNPELGYDALLVGTQTNLLAYDVYNNSDLFYREVADGANAIVLGTLGDISSPLAIIGGNCALQGFNHEGSDLFWTVTGDNVNSLALCDFDGDGKKELLVGSEDFDIRVFKEDEIVAEMTETEIVTSLCPMYGSRFGYALSNGTVGVYDKTSRYWRIKSKNHAMSIHAFDLNSDGVNELITGWSNGKVDARSDRTGEVIFKDNFSSAIAGVVEGDYRMDGHIQLICCSVDGEIRGYLPGTAEMRGNLMDTSAEQDLIRELSQKKQNLLLELRNYEENAKAELASPLNEADGHRGIIPANTRLHTTLSVSLGNETQTAHTELRISTSNDTIIRAVLIFAEGIFTGESHVVHPSIHNLSSSICIPIVPPKDVPVDLHLKAFVGYRSSTQFHVFESTRQLPRFSMYALTSLDPASEPISYVNFTIAERAQRVVVWLGQNFLLPEDTHIQNAPFQVCFTSLRNGGHLHIKIKLSGEITINTDDIDLAGDIIQSMASFFAIEDLQVEADFPVYFEELRKVLVKVDEYHSVHQKLSADMADHSNLIRSLLVGAEDARLMRDMKTMKSRYMELYDLNRDLLNGYKIRCNNHTELLGNLKAVNQAIQRAGRLRVGKPKNQVITACRDAIRSNNINTLFKIMRVGTASS
partner: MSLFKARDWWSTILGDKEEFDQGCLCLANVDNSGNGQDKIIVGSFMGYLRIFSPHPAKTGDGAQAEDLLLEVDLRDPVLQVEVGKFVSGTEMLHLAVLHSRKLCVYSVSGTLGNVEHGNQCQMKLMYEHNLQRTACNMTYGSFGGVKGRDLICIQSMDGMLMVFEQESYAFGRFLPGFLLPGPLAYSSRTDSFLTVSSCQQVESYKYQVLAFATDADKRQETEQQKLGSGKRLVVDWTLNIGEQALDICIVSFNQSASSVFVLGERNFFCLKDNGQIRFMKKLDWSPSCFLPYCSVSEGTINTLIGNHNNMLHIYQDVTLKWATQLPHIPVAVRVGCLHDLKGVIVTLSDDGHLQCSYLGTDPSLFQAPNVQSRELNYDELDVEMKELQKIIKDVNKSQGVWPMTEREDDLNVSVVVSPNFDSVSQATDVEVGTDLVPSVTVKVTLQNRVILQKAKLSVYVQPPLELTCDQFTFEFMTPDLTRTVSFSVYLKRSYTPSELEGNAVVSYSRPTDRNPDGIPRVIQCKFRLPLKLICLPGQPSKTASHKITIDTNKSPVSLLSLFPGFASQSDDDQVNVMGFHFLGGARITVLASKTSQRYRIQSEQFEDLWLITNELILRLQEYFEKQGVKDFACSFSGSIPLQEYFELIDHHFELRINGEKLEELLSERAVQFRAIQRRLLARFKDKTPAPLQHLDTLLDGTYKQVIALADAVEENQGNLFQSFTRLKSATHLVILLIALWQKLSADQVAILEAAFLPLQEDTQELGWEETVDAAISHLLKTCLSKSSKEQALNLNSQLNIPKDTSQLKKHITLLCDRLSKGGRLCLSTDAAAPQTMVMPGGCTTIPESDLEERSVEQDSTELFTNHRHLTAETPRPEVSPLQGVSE

Variants of: B1
Details: with pthb1_human BBS9, Q3SYG4

Row | Variant | effect of a mutation on the interaction
1 | V415K | with no effect
2 | V415E | with no effect
3 | V415A | with no effect
4 | T410A | with no effect
5 | T410E | with no effect
6 | T410K | with no effect
7 | F423E | with no effect
8 | F423A | with no effect
9 | F423K | with no effect
10 | H431K | with no effect
11 | H431R | disrupting interaction strength
12 | H431A | with no effect
13 | H431E | with no effect
14 | S405E | with no effect
15 | S405K | with no effect
16 | S405P | disrupting interaction strength
17 | S405A | with no effect
18 | R403K | with no effect
19 | R403A | with no effect
20 | R403E | with no effect
21 | E420A | with no effect
22 | E420K | with no effect
23 | D409K | with no effect

Row | Variant | effect of a mutation on the interaction
24 | D409A | with no effect
25 | D409E | with no effect
26 | R413E | with no effect
27 | R413K | disrupting interaction strength
28 | R413A | with no effect
29 | T424K | with no effect
30 | T424E | with no effect
31 | T424A | with no effect
32 | I417E | with no effect
33 | I417A | with no effect
34 | I417K | with no effect
35 | L416E | with no effect
36 | L416A | with no effect
37 | L416K | with no effect
38 | V430E | with no effect
39 | V430A | disrupting interaction strength
40 | V430K | with no effect
41 | I404A | with no effect
42 | I404K | with no effect
43 | I404E | with no effect
44 | S407F | disrupting interaction strength
45 | S407A | with no effect
46 | S407E | with no effect

Row | Variant | effect of a mutation on the interaction
47 | S407K | with no effect
48 | P432K | with no effect
49 | P432E | with no effect
50 | P432A | with no effect
51 | P432L | disrupting interaction strength
52 | G421K | with no effect
53 | G421E | with no effect
54 | G421A | with no effect
55 | G425K | with no effect
56 | G425A | with no effect
57 | G425E | with no effect
58 | I412R | disrupting interaction strength
59 | I412A | with no effect
60 | I412K | with no effect
61 | I412E | with no effect
62 | F418A | with no effect
63 | F418E | with no effect
64 | F418K | with no effect
65 | A419K | with no effect
66 | A419E | with no effect
67 | H428A | with no effect
68 | H428K | with no effect
69 | H428E | with no effect

Row | Variant | effect of a mutation on the interaction
70 | E426A | with no effect
71 | E426K | with no effect
72 | I411E | with no effect
73 | I411A | with no effect
74 | I411K | with no effect
75 | S427K | with no effect
76 | S427E | with no effect
77 | S427A | with no effect
78 | T406K | with no effect
79 | T406A | with no effect
80 | T406E | with no effect
81 | A414E | with no effect
82 | A414K | with no effect
83 | A414V | disrupting interaction strength
84 | I422A | with no effect
85 | I422E | with no effect
86 | I422K | with no effect
87 | V429K | with no effect
88 | V429E | with no effect
89 | V429A | with no effect
90 | N408A | disrupting interaction strength
91 | N408K | with no effect
92 | N408E | with no effect

Next, values leading:

Row | effect of a mutation on the interaction | Variant
93 | with no effect | N436E
94 | with no effect | N436K
95 | with no effect | N436A
96 | with no effect | P447K
97 | with no effect | P447E
98 | with no effect | P447A
99 | disrupting interaction strength | L437K
100 | with no effect | L437E
101 | with no effect | L437A
102 | with no effect | P452K
103 | with no effect | P452A
104 | with no effect | P452E
105 | with no effect | P448E
106 | with no effect | P448A
107 | with no effect | P448K
108 | disrupting interaction strength | L457K
109 | disrupting interaction strength | L457E
110 | disrupting interaction strength | L457C
111 | with no effect | L457A
112 | with no effect | C442A
113 | with no effect | C442E

Row | effect of a mutation on the interaction | Variant
114 | with no effect | C442K
115 | with no effect | H435K
116 | with no effect | H435A
117 | with no effect | H435E
118 | disrupting interaction strength | S438F
119 | with no effect | S438E
120 | with no effect | S438A
121 | with no effect | S438K
122 | disrupting interaction strength | I445T
123 | disrupting interaction strength | I445A
124 | disrupting interaction strength | I445K
125 | disrupting interaction strength | I445E
126 | disrupting interaction strength | I445Q
127 | with no effect | H456A
128 | with no effect | H456K
129 | with no effect | H456E
130 | with no effect | S439K
131 | disrupting interaction strength | S439N
132 | disrupting interaction strength | S439A
133 | disrupting interaction strength | S439E
134 | with no effect | K449A

Row | effect of a mutation on the interaction | Variant
135 | with no effect | K449E
136 | disrupting interaction strength | K449R
137 | disrupting interaction strength | I443A
138 | disrupting interaction strength | I443E
139 | disrupting interaction strength | I443K
140 | with no effect | I441A
141 | with no effect | I441K
142 | with no effect | I441E
143 | disrupting interaction strength | L455K
144 | with no effect | L455A
145 | disrupting interaction strength | L455P
146 | with no effect | S433E
147 | with no effect | S433K
148 | with no effect | S433A
149 | with no effect | D454K
150 | with no effect | D454E
151 | with no effect | D454A
152 | with no effect | S440A
153 | with no effect | S440K
154 | with no effect | S440E
155 | with no effect | D450K

Row | effect of a mutation on the interaction | Variant
156 | with no effect | D450E
157 | disrupting interaction strength | D450L
158 | with no effect | D450A
159 | with no effect | V446A
160 | with no effect | V446K
161 | with no effect | V446E
162 | with no effect | P444E
163 | with no effect | P444K
164 | with no effect | P444A
165 | disrupting interaction strength | V453K
166 | with no effect | V453A
167 | with no effect | V453E
168 | with no effect | I434E
169 | with no effect | I434A
170 | with no effect | I434K
171 | with no effect | V451A
172 | with no effect | V451E
173 | with no effect | V451K
